Laboratory results from PMC5122344, “Nuclear delivery of recombinant OCT4 by chitosan nanoparticles for transgene-free generation of protein-induced pluripotent stem cells”.

What was measured:
GST-OCT4 [1] = target: T1, GST-OCT4 (human, UniProt Q01860 1-360); experiment: EMSA; soluble OCT4, 30 ng per lane; LI-COR Odyssey EMSA kit 1x binding buffer (composition and pH not given), 2.5 mM DTT, 0.25% Tween-20, 1 ug poly(dI-dC) in 20 ul, 20 min at RT; 4% native PAGE in 0.5x TBE; conditions: protein: recombinant; tags: GST (N-terminal, pAcG2T); label: IRDye 700; (only one strand printed)
T1 sequence (Q01860 whole entry): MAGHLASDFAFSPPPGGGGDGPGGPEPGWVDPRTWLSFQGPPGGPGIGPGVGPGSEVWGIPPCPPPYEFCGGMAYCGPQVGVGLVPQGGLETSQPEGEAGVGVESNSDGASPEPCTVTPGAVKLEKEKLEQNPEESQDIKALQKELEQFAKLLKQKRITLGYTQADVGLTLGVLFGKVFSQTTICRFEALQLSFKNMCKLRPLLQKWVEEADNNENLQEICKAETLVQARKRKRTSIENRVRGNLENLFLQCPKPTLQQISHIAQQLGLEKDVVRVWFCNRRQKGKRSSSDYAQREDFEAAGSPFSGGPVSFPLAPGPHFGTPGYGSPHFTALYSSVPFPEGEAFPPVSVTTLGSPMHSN

GST-OCT4 [2] = target: T1, GST-OCT4; experiment: competition; 50-fold excess unlabeled oligonucleotide abolishes complex; LI-COR Odyssey EMSA kit 1x binding buffer (composition and pH not given), 2.5 mM DTT, 0.25% Tween-20, 1 ug poly(dI-dC) in 20 ul, 20 min at RT; 4% native PAGE in 0.5x TBE; conditions: protein: recombinant; tags: GST (N-terminal, pAcG2T); label: none; (only one strand printed)

B1: octamer oligonucleotide (Ig heavy chain enhancer) (dsDNA)
DNA 1: GCCGAATTTGCATATTTGCATGGCTG
DNA 2: CAGCCATGCAAATATGCAAATTCGGC
binding result (GST-OCT4 [1]): binds

B2: unlabeled octamer oligonucleotide (dsDNA)
DNA 1: GCCGAATTTGCATATTTGCATGGCTG
DNA 2: CAGCCATGCAAATATGCAAATTCGGC
binding result (GST-OCT4 [2]): binds
